Experimental data: patent US12466859B2, “Desmoglein 2 (DSG2) binding proteins and uses therefor” (UNIVERSITY OF WASHINGTON THROUGH ITS CENTER FOR …, priority 2013, dated 2025)
“Also recorded” adds a separate entry of the source.

Experiments:
ovc316 xenograft tumors = experiment: Enhancement of PLD therapy in ovc316 ovarian cancer xenograft tumors; assay type: in vivo, CB17 mice; conditions: weekly
Procedure: (§1) FIG. 10A-10C. Combination of affinity-enhanced JO-1 versions with chemotherapy. FIG. 10A) Enhancement of irinotecan (I) therapy. The experimental setting was the same as in FIG. 5B. […] N=5. […] Mammary fat pad tumors were established from primary ovarian cancer ovc316 cells. Treatment was started when tumors reached a volume of 100 mm^3. Mice were injected intravenously with 2 mg/kg JO-1 or with 0.5 mg/kg JO-4, followed by an intravenous injection of PEGylated liposomal doxorubicin (PLD) (1 mg/kg) one hour later. Treatment was repeated weekly. […] A total of 4×10^6 TNBC MDA-MB-231 cells were injected into the mammary fat pad of CB17 SCID-beige mice. JO-4 (2 mg/kg) was intravenously injected 1 hour before the application of cetuximab (C) (10 mg/kg, i.p.) and nab-paclitaxel (nab-P) (5 mg/kg, i.v.). Treatment was given weekly. N=10 P<0.01 at day 25 for nab-P+C vs JO-4+nab-P+C.
A549, MDA-MB-231, and ovc316 xenograft tumors were established by injection of the corresponding tumor cells into the mammary fat pad (1:1 with Matrigel) of CB17 mice. TC1-DSG2 tumors were established by subcutaneous injection of TC1-DSG2 cells into DSG2 transgenic mice. […] Tumor volumes were measured three times a week. […]

[1] = Serum clearance of JO-1 and JO-4 by ELISA; assay type: in vivo, hDSG2 transgenic mice; conditions: 2 mg/kg i.v.; mice with TC1-hDSG2 tumors
Procedure: (§2) FIG. 11A-11C. Pharmacokinetics, toxicity, and immunogenicity of JO-4. FIG. 11A) Serum clearance of JO-1 and JO-4. hDSG2 transgenic mice with subcutaneous TC1-hDSG2 tumors (˜600 mm^3) were intravenously injected with JO-1 or JO-4 (2 mg/kg) and serum samples were analyzed for by ELISA. N=3. Note that the y-axis has a log scale. FIG. 11B1) Lymphocyte and FIG. 11B2) platelet counts in hDSG2/TC1-hDSG2 transgenic mice after JO-1 or JO-4 injection. N=3. FIG. 11C) Therapy studies in immunocompetent hDSG2 transgenic mice with TC1-hDSG2 tumors. When tumors reached a volume of ˜80 mm^3, JO-1 or JO-4 (2 mg/kg) or PBS was injected intravenously followed one hour later by PLD/Doxil (i.v. 1.5 mg/kg). Treatment was repeated as indicated by arrows. Tumors were then allowed to re-grow for about two weeks. From day 15 on serum anti-JO-1/J)—4 antibodies were detectable by ELISA. Two more treatment cycles were performed at day 28 and day 35. […] The difference between JO-1/PLD vs JO-4/PLD is significant from day 31 on. N=10.
Two of the affinity enhanced version of JO-1, Y293D and V250F were analyzed in in vivo assay. We called these mutants JO-2 and JO-4, respectively. The first study was performed in a xenograft model derived from A549 cells similar to the study described for FIG. 5B. […] We also analyzed hematological parameters after i.v. JO-1 and JO-4 injection.

[2] = Blood chemistry and blood cell counts after i.v. injection; assay type: in vivo, hDSG2 transgenic mice; conditions: for Blood chemistry / Lymphocyte and platelet number after injection: after i.v. injection, 2 mg/kg
Procedure: as §2
Two of the affinity enhanced version of JO-1, Y293D and V250F were analyzed in in vivo assay. We called these mutants JO-2 and JO-4, respectively. The first study was performed in a xenograft model derived from A549 cells similar to the study described for FIG. 5B. […] Additional studies were performed in xenograft tumors derived from ovc316 cells (30, 32). Ovc316 cells are Her2/neu positive epithelial tumor cells derived from an ovarian cancer biopsy. These cells can undergo EMT and the reverse process, mesenchymal-to-epithelial-transition (MET), under specific conditions in vitro and in vivo. A subfraction of ovc316 cells that is positive for Nanog, CD133, and E-cadherin is enriched for cancer stem cells, i.e. self-renewing cells with pluripotent potential and tumor forming ability (30). Ovc316 cells therefore closely model the heterogeneity and plasticity seen in tumors in situ. […] Finally, we tested JO-4 in a model for triple-negative breast cancer (TNBC). TNBC is characterized by a lack or minimal expression of estrogen receptor (ER), progesterone receptor (PR) and the absence of Her2/neu overexpression. TNBC accounts for 15% of all breast cancers. Overall survival is poor compared with that in patients who have other phenotypes. A characteristic feature of TNBC is high levels of DSG2 and epithelial junctions. Promising clinical results in the treatment of TNBS have been achieved with nanoparticle, albumin-conjugated paclitaxel (nab-paclitaxel/Abraxane™) alone or in combination with the EGFR-targeting mAb cetuximab/Erbitux™ (38). […] Because of its therapeutic relevance, we further studied JO-4 in an adequate mouse tumor model. […] These mice were subcutaneously implanted with syngeneic TC1-hDSG tumors. When tumors reached a volume of ˜600 mm^3, JO-1 or JO-4 was intravenously injected for safety and efficacy studies. […] After one hour post-injection JO-1 and JO-4 concentration reached a plateau with −100 ng/ml. We also analyzed hematological parameters after i.v. JO-1 and JO-4 injection.

A549 xenograft tumors = experiment: Enhancement of irinotecan therapy in A549 xenograft tumors; assay type: in vivo, CB17-SCID/beige mice; conditions: 2 mg/kg i.v. one hour before irinotecan 37.5 mg/kg i.v.; tumor volume
Procedure: FIG. 5A-5B. Correlation of reduced DSG2 binding with the ability to open epithelial junctions. FIG. 5A) Transepithelial electrical resistance (TEER) measured on polarized colon cancer T84 cells. Cells were cultured in transwell chambers until the TEER was constant, i.e. tight junctions had formed. A total of 5 μg of dimeric Ad3 fiber knobs in PBS was then added for 1 hour to the apical chamber. TEER was measured at the indicated time points. N=6. For time points 1.5 and 4 hours the difference between JO-1 vs D261N and N186D was significant (p<0.01). The arrows indicate the addition and removal of Ad3 fiber knobs. FIG. 5B) Enhancement of irinotecan therapy. A total of 4×10^6 A549 cells were injected subcutaneously into CB17-SCID/beige mice. Once the tumor reached a volume of ˜100 mm^3 (day 15 after implantation), the mice were injected intravenously with 2 mg/kg JO-1, E299V, N186D, or PBS, followed by an intravenous injection of irinotecan (37.5 mg/kg) one hour later. The treatment was repeated on day 25. N=5. […] The difference between “irinotecan” vs “JO-1+irinotecan” was significant (p<0.01) from day 20 on.
as §1
A549, MDA-MB-231, and ovc316 xenograft tumors were established by injection of the corresponding tumor cells into the mammary fat pad (1:1 with Matrigel) of CB17 mice. TC1-DSG2 tumors were established by subcutaneous injection of TC1-DSG2 cells into DSG2 transgenic mice. JO-0, JO-1, JO-2, or JO-4 were intravenously injected one hour before the application of chemotherapeutic drugs: Irinotecan/Camptosar™ (Pfizer Inc., Groton, CT), PEGylated liposomal doxorubicin/Lipodox™ (Sun Pharmaceuticals IN, India), cetuximab/Erbitux™ (ImClone, Somerville, NJ), nanoparticle albumin conjugated paclitaxel/Abraxane” (Abraxis Biosciences, Summit, NJ). Tumor volumes were measured three times a week. Each treatment group consisted of a minimum of 5 mice.

| Molecule | Enhancement of PLD therapy (ovc316 xenograft tumors; 2 mg/kg i.v. one hour before PLD 1 mg/kg) | Decline of serum concentration within an hour after injection [1] | Blood chemistry [2] | Lymphocyte and platelet number after injection [2] | Enhancement of irinotecan therapy (A549 xenograft tumors) | Enhancement of PLD therapy (ovc316 xenograft tumors; 0.5 mg/kg i.v. one hour before PLD 1 mg/kg) | Lymphocyte and platelet counts at nadir compared with JO-1 ([2]; 24 hours p.i., p<0.01) | Return of lymphocyte and platelet counts to normal levels ([2]; compared with JO-1 treated animals) |
| --- | --- | --- | --- | --- | --- | --- | --- | --- |
| JO-1: dimeric protein that contains the wild-type Ad3 fiber knob and a self-dimerization domain (SEQ ID NO:27) (protein, listed as Homo sapiens, dimer) MKVSALKEKVSALKEKVSALKEKVSALKEKVSALKEGSGGGSGGGSGGGSNSIALKNNTLWTGPKPEANCIIEYGKQNPDSKLTLILVKNGGIVNGYVTLMGASDYVNTLFKNKNVSINVELYFDATGHILPDSSSLKTDLELKYKQTADFSARGFMPSTTAYPFVLPNAGTHNENYIFGQCYYKASDGALFPLEVTVMLNKRLPDSRTSYVMTFLWSLNAGLAPETTQATLITSPFTFSYIREDD | significantly increased the treatment efficiency | declined more than one order of magnitude | did not show abnormal changes | decreased early after injection | enhanced irinotecan therapy; also recorded: significant |  |  |  |
| JO-4 (protein) MKVSALKEKVSALKEKVSALKEKVSALKEKVSALKEGSGGGSGGGSGGGSNSIALKNNTLWTGPKPEANCIIEYGKQNPDSKLTLILVKNGGIVNGYVTLMGASDYVNTLFKNKNVSINVELYFDATGHILPDSSSLKTDLELKYKQTADFSARGFMPSTTAYPFVLPNAGTHNENFIFGQCYYKASDGALFPLEVTVMLNKRLPDSRTSYVMTFLWSLNAGLAPETTQATLITSPFTFSYIREDD |  | declined more than one order of magnitude; also recorded: significantly greater; also recorded: rapidly decrease | did not show abnormal changes | decreased early after injection; also recorded: transient reduction | significantly more than JO-1; also recorded: significantly more efficient than JO-2 | enhances PLD therapy | significantly lower numbers | faster |
